Source: patent US20250042970A1 (AURINIA PHARMACEUTICALS, published 2025)

Tests used:
[1] = target: T1, murine BAFF (Examples 22-23) (mouse, UniProt Q9WU72 127-309); assay: colorimetric ELISA, inhibition curves
From the text: (§1) A colorimetric ELISA was used to assess the binding of BAFF/APRIL binding molecules to human and murine BAFF and APRIL. Inhibition curves based on binding to soluble human and murine BAFF and APRIL were used to determine the IC₅₀ values for binding of the exemplary BCMA CRD variant-IgG4 fusion protein BAv9-1 CRD-IgG4 Fc, Atacicept and a different recombinant TACI-Fc fusion protein RC18 (also known as Telitacicept).
(§2) FIG. 34A and FIG. 34B show the inhibition curves of the three different BAFF/APRIL binding molecules to murine BAFF (FIG. 34A) and murine APRIL (FIG. 34B). Compared to the IC₅₀ values determined for Atacicept and RC18 (Telitacicept), the IC₅₀ of the exemplary BCMA CRD variant-IgG4 fusion protein BAv9-1 CRD-IgG4 Fc was orders of magnitude lower for both murine BAFF and murine APRIL. The IC₅₀ values for BAv9-1 CRD-IgG4 Fc for murine BAFF and murine APRIL were 1.5 nM and 2.7 nM respectively.

[2] = target: T2, human APRIL (Examples 21-23) (human, UniProt O75888 105-250); assay: colorimetric ELISA, inhibition curves
T2 construct: also called huAPRIL
T2 sequence: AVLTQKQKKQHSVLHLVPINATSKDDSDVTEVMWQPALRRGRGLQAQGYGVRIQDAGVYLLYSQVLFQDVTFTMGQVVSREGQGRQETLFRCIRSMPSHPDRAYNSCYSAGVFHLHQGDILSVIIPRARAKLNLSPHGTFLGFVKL
From the text: as §1, §2

[3] = target: T3, murine APRIL (Examples 22-23) (mouse, UniProt Q9D777 96-241); assay: colorimetric ELISA, inhibition curves
T3 sequence (looked up): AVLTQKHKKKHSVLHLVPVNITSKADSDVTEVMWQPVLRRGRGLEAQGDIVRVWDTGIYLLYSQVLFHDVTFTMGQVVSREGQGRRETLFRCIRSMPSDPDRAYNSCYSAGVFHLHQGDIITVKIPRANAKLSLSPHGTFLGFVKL
From the text: as §1, §2

[4] = target: T4, human APRIL (Acros Biosystems) (human, UniProt O75888 115-250, limits assumed); assay: cell-based or functional assay
T4 sequence: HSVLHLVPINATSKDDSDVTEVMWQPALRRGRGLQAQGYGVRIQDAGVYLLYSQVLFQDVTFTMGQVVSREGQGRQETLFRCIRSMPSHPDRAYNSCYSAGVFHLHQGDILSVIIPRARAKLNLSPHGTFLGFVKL

[5] = target: human BAFF (Acros Biosystems) (human, UniProt Q9Y275 134-285); assay: cell-based or functional assay
[6] = target: human BAFF-60mer (Adipogen) (human, UniProt Q9Y275 134-285); assay: cell-based or functional assay
[7] = target: T2, human APRIL (Examples 21-23); assay: ratio of KD values of Table 11, assay not stated (Example 21); reference Atacicept
[8] = target: T5, human BAFF (Examples 21-23) (human, UniProt Q9Y275 134-285); assay: as above
T5 construct: also called huBAFF

[9] = target: T2, human APRIL (Examples 21-23); assay: assay not given (Example 21)
[10] = target: T5, human BAFF (Examples 21-23); assay: assay not given (Example 21)
[11] = target: T1, murine BAFF (Examples 22-23); assay: SPR (Carterra LSA, HC30M chip)
Method: (§3) The KD of a BAv9-1 CRD-IgG4 Fc fusion protein, and other BAFF or APRIL binding molecules, the BAFF/APRIL binding molecule Atacicept and a different recombinant TACI-Fc fusion protein RC18 (also known as Telitacicept), to human or murine BAFF or human or murine APRIL were determined by surface plasmon resonance (Carterra LSA, HC30M sensor chip).

[12] = target: T2, human APRIL (Examples 21-23); assay: SPR (Carterra LSA, HC30M chip)
Method: as §3

[13] = target: T5, human BAFF (Examples 21-23); assay: SPR (Carterra LSA, HC30M chip)
Method: as §3

[14] = target: T3, murine APRIL (Examples 22-23); assay: SPR (Carterra LSA, HC30M chip); murine ligand (Table 13)
Method: as §3

[15] = target: T2, human APRIL (Examples 21-23); assay: assay not given (Example 21); remark: listed apart in the source
[16] = target: T5, human BAFF (Examples 21-23); assay: assay not given (Example 21); remark: listed apart in the source

T1 sequence (Q9WU72 127-309 limits assumed): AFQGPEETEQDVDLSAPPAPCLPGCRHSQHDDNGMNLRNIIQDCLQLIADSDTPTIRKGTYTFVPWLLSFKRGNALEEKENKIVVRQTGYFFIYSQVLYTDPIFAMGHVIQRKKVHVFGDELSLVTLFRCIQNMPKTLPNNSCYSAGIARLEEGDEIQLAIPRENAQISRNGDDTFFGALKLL

B1: BAv9-1 CRD-IgG4 Fc (Fc fusion)
chain: AGQCSQNEYFDHLIRACIPCQLRCSSNTPPLTCQRYCNAGVTNSVGGGGSAESKYGPPCPPCPAPEAAGGPSVFLFPPKPKDTLMISRTPEVTCVVVDVSQEDPEVQFNWYVDGVEVHNAKTKPREEQFNSTYRVVSVLTVLHQDWLNGKEYKCKVSNKGLPSSIEKTISKAKGQPREPQVYTLPPSQEEMTKNQVSLTCLVKGFYPSDIAVEWESNGQPENNYKTTPPVLDSDGSFFLYSRLTVDKSRWQEGNVFSCSVMHEALHNHYTQKSLSLSPGK
notes: mature expressed protein; also called BAv9-1 CRD-Ig Fc; exemplary BCMA CRD variant-IgG4 fusion protein
B1 showed an IC50 [1] of 1.5 nM, an IC50 [2] of 0.002 nM and an IC50 [3] of 2.7 nM. For the same binder, the “IC50 for proliferation of stimulated B cells, Donor 1, APRIL + anti-IgM” value [4] was 0.662 nM, the “IC50 for proliferation of stimulated B cells, Donor 2, APRIL + anti-IgM” value [4] was 0.226 nM and the “IC50 for proliferation of stimulated B cells, Donor 3, APRIL + anti-IgM” value [4] was 0.366 nM. The “IC50 for proliferation of stimulated B cells, Donor 1, BAFF + anti-IgM” value [5] was 0.311 nM, the “IC50 for proliferation of stimulated B cells, Donor 2, BAFF + anti-IgM” value [5] was 0.000215 nM and the “IC50 for proliferation of stimulated B cells, Donor 3, BAFF + anti-IgM” value [5] was 0.0201 nM. For the same binder, the “IC50 for proliferation of stimulated B cells, Donor 1, BAFF-60mer + anti-IgM” value [6] was 0.835 nM, the “IC50 for proliferation of stimulated B cells, Donor 2, BAFF-60mer + anti-IgM” value [6] was 0.577 nM and the “IC50 for proliferation of stimulated B cells, Donor 3, BAFF-60mer + anti-IgM” value [6] was 0.61 nM. The “fold higher binding affinity compared to Atacicept” value [7] was 600 to 800 fold, the “fold higher binding affinity compared to Atacicept” value [8] was 600 to 800 fold and the Kd [9] was 0.00015 nM. It also gave a Kd [10] of 0.00024 nM, a Kd [11] of 0.031 nM and a Kd [12] of 0.025 nM. The Kd [13] was 0.117 nM, the Kd [14] was 0.00015 nM and the “fold higher binding affinity vs Atacicept” value [15] was 600 to 800 fold. The “fold higher binding affinity vs Atacicept” value [16] was 600 to 800 fold.
